From patent US20160168251A1 (MorphoSys, published 2016) come the findings set out here.

Assay [1] has as its target T1, human NPRA on HEK293 cells bound to ANP (human, UniProt P01160 124-151).
T1 sequence: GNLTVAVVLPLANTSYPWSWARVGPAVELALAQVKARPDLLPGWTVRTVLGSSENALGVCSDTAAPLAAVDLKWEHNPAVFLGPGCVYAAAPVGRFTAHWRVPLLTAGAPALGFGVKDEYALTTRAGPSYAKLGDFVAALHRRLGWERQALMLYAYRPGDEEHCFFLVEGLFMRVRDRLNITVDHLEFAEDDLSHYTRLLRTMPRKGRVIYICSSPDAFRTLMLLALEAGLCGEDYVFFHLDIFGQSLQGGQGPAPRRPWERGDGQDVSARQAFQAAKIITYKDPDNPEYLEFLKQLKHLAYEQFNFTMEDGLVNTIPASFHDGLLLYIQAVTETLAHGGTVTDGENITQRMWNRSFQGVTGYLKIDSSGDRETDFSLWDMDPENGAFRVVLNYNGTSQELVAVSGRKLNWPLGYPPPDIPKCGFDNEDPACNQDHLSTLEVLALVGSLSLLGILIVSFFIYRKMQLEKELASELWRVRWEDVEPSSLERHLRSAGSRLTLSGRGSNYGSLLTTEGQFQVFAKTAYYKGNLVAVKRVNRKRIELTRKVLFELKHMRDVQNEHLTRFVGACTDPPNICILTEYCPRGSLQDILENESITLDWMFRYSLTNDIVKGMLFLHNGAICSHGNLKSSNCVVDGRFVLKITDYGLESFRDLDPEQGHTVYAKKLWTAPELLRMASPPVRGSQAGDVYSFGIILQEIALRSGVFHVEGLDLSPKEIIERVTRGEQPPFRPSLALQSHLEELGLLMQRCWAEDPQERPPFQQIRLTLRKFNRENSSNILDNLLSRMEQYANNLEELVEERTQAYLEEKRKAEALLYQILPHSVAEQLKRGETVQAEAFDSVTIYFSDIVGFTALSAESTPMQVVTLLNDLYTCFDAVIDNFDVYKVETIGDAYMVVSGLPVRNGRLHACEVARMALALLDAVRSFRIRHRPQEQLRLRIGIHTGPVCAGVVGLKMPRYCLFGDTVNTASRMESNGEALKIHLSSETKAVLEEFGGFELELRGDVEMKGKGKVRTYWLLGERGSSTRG
T1 sequence (peptide): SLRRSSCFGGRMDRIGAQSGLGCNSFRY
Briefly: cell-based or functional assay.

Assay [2] deals with T2, NPRA-Fc fusion protein bound to ANP (human, UniProt P01160 124-151).
T2 construct: mature; Receptor-ligand complex; 'human ANP' is stated for Biacore, plain 'ANP' for ELISA and HXMS; also called NPRA-Fc+ANP
Briefly: SPR (Biacore 3000), NPRA-Fc amine-coupled on CM5, analyte with 100 nM human ANP. On the technique in general: SPR reads the build-up and loss of mass on a sensor chip optically.

B1: 5504 Fab (Fab, V domains shown)
VH: QVQLQQSGPGLVKPSQTLSLTCAISGDSVSSRSASWSWIRQSPGRGLEWLGRIYYRSKWYNDYAVSVKSRITINPDTSKNQFSLQLNSVTPEDTAVYYCARMDVPSFRYFDVWGQGTLVTVSS
VL: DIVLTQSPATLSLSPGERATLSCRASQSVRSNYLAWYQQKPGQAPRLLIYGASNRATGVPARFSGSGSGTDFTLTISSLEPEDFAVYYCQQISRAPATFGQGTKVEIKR
As for B1, in assay [1], the “EC50 of ANP, cGMP production in HEK NPRA cells, with 400 nM Fab” value (from here on “EC50 of ANP, cGMP production”) turned out to be 0.3 nM and the “factor by which the potency of ANP is enhanced (cGMP, 400 nM Fab)” value was 10 fold.

B2: 5507 Fab (Fab, V domains shown)
VH: QVQLQQSGPGLVKPSQTLSLTCAISGDSVSSRSASWSWIRQSPGRGLEWLGRIYYRSKWYNDYAVSVKSRITINPDTSKNQFSLQLNSVTPEDTAVYYCARMDVPSFRYFDVWGQGTLVTVSS
VL: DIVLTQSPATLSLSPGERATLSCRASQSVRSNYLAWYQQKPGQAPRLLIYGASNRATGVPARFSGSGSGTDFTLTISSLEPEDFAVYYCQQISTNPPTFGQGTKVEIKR
In the case of B2, in assay [1], the “EC50 of ANP, cGMP production” value was in the range of 0.5 to 0.6 nM.

B3: 5514 Fab (Fab, V domains shown)
VH: QVQLQQSGPGLVKPSQTLSLTCAISGDSVSSRSASWSWIRQSPGRGLEWLGRIYYRSKWYNDYAVSVKSRITINPDTSKNQFSLQLNSVTPEDTAVYYCARMDVPSFRYFDVWGQGTLVTVSS
VL: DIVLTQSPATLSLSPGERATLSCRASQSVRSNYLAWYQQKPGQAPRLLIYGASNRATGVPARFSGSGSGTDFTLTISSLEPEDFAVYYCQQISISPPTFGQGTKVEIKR
Regarding B3, in assay [1], the “EC50 of ANP, cGMP production” value fell in the range of 0.5 to 0.6 nM.

B4: 5513 Fab (Fab, V domains shown)
VH: QVQLQQSGPGLVKPSQTLSLTCAISGDSVSSRSASWSWIRQSPGRGLEWLGRIYYRSKWYNDYAVSVKSRITINPDTSKNQFSLQLNSVTPEDTAVYYCARMDVPSFRYFDVWGQGTLVTVSS
VL: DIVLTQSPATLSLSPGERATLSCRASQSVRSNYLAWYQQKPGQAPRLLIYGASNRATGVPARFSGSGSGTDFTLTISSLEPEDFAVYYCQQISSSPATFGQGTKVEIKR
For B4, in assay [1], the “EC50 of ANP, cGMP production” value was in the range of 0.5 to 0.6 nM.

B5: 5592 Fab (Fab, V domains shown)
VH: QVQLQQSGPGLVKPSQTLSLTCAISGDSVSSRSASWSWIRQSPGRGLEWLGRTYYRSHWYYEYAQSVKSRITINPDTSKNQFSLQLNSVTPEDTAVYYCARMDVPSFRYFDVWGQGTLVTVSS
VL: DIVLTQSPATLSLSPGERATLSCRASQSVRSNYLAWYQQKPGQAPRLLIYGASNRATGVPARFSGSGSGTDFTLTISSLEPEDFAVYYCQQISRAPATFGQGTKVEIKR
With B5, in assay [2], the affinity, expressed as Kd, was 0.426 nM; the koff – broadly, a measure of how fast the partners let go of each other – worked out at 0.000369 s⁻¹; the kon – broadly, the rate constant with which the complex forms – stood at 868000 M⁻¹ s⁻¹.
